Reference: PMC2564731 (Molecular Systems Biology, 2008)

Experiments:
Assay in all cases: pull-down
[1] = target: T1, GLABRA1 (GL1), recombinant GST or His fusion protein (Arabidopsis, UniProt P27900 1-228)
T1 sequence: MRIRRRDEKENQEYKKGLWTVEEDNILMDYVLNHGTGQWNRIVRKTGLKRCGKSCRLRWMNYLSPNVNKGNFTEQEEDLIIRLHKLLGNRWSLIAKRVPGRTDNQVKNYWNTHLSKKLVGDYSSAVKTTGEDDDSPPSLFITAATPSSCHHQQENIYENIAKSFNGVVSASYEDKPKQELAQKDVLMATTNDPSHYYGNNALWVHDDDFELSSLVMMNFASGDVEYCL

[2] = target: T2, ENHANCER OF GLABRA3 (EGL3), recombinant GST or His fusion protein (Arabidopsis, UniProt Q9CAD0 1-596)
T2 sequence: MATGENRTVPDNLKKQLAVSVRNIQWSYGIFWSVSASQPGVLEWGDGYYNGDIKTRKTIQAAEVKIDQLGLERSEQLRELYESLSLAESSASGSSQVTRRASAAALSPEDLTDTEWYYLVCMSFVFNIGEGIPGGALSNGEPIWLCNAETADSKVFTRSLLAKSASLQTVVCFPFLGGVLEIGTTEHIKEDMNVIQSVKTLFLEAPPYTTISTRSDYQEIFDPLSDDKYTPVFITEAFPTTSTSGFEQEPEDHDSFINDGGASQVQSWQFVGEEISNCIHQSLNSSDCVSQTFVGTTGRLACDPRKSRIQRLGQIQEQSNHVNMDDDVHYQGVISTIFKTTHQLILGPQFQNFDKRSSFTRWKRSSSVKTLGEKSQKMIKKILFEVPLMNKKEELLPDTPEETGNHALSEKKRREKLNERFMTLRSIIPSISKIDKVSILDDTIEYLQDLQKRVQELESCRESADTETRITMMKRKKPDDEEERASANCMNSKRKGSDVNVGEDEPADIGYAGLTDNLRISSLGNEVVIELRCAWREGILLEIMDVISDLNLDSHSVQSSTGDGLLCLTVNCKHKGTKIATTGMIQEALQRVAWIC

[3] = target: T3, GLABRA3 (GL3), recombinant GST or His fusion protein (Arabidopsis, UniProt Q9FN69 1-637)
T3 sequence: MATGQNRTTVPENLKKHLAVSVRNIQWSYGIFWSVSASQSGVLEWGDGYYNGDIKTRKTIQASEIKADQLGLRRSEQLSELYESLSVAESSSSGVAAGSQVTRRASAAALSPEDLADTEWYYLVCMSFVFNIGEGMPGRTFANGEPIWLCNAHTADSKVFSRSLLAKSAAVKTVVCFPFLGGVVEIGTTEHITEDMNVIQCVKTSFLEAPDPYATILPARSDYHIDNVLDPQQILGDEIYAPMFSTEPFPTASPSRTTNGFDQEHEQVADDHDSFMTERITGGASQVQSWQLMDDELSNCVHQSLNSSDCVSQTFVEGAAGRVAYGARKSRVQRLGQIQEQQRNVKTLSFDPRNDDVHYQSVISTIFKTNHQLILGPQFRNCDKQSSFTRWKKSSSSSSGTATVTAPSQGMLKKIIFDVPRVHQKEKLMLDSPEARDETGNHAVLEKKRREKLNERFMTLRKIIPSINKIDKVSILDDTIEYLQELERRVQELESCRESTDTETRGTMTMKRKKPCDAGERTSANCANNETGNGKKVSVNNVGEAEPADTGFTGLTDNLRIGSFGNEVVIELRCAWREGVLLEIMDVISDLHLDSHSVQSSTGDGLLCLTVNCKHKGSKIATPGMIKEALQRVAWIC

Measured: binding result

B1: TRIPTYCHON (TRY), recombinant GST or His fusion protein (natural protein)
chain: MDNTDRRRRRKQHKIALHDSEEVSSIEWEFINMTEQEEDLIFRMYRLVGDRWDLIAGRVPGRQPEEIERYWIMRNSEGFADKRRQLHSSSHKHTKPHRPRFSIYPS
binds: all assays above
